Data as given in the supplement of paper PMC9170038.

Test system: MS2 coat protein
Experiment: apparent KD of MS2 coat protein; designed switch direction (-1 OFF switch, 1 ON switch): 1; higher = weaker reporter binding
How it was run: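 Designed RNA switches sharing common flanks were transcribed on Illumina chips by stalled E. coli RNA polymerase. They were titrated with SNAP-549-labelled MS2 coat protein, from 0.7 or 1.5 nM doubling to 3 µM, in Tris-HCl pH 7.5 buffer with KCl, MgCl2, BSA, DTT, tRNA and Tween-20. Titrations ran without input, with 200 uM small-molecule ligand, or with an oligonucleotide input. The apparent KD of each design is the median over its clusters, after curve-fitting of normalised cluster fluorescence.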

[1] = Eterna round: R95, input ligand: FMN 200 uM
[2] = Eterna round: R95, input ligand: microRNA oligo, concentration not stated
[3] = Eterna round: R95, input ligand: none
[4] = input ligand: microRNA oligo, concentration not stated

“AGGCGGAUAUCACAGGAUAUGUGCGCGUUCACAUGAGGAUCACCCAUGUAAAGGACGAGCCAAAAGCAGAAGGGUGACCACGCGA [Aedorlebe] (puzzle: Same State 2)” was tested, and the “apparent KD of MS2 coat protein” value [1] was 15.3 nM, the “apparent KD of MS2 coat protein” value [2] was 14.8 nM and the “apparent KD of MS2 coat protein” value [3] was 25.4 nM.

In the case of “AGGCUCAGACGAGGAUAUAUGUGAUCACAUGAGGAUCACCCAUGUCUCGAGCUUCGGCUCGAGACAUAGAAGGCGUCUGAGCCA [SSNG2/3-A1] (Eterna round: R96, puzzle: Same State NG 2)”, the “apparent KD of MS2 coat protein” value (input ligand: FMN 200 uM) is reported as 505 nM, the “apparent KD of MS2 coat protein” value [4] is reported as 8.91 nM and the “apparent KD of MS2 coat protein” value (input ligand: none) is reported as 21.4 nM.

“AGGUAACAUGAGGAUCACCCAUGUAAGGUGAACGUAGGAUAUCGAAGAGGUAGGGUAGGACGAGAAGGACGAGGAA [JR_SS1_Sub092] (puzzle: Same State 1)” was tested, and the “apparent KD of MS2 coat protein” value [1] was 347 nM, the “apparent KD of MS2 coat protein” value [2] was 346 nM and the “apparent KD of MS2 coat protein” value [3] was 481 nM.

“AGUAUUAAUGCAGGAUAUGAUUAACAUGAGGAUCACCCAUGUGGUGUUGUGAGUAAGGAGAGUGAUCAGAAGGGCAUUUUUUUU [JMF's solution 38] (Eterna round: R96, puzzle: Same State NG 2)” was tested, and the “apparent KD of MS2 coat protein” value (input ligand: FMN 200 uM) was 414 nM, the “apparent KD of MS2 coat protein” value [4] was 175 nM and the “apparent KD of MS2 coat protein” value (input ligand: none) was 502 nM.

“AGUCCAGCAAGAGCUGGACAAAAGCAUGUACAUGAGGAUCACCCAUGUUCAUGUACAAGCUUUUUGCUCGUCAAAAG [Mat - hsa-mir-208a - Mod of JL - 72] (puzzle: Sensor for hsa-mir-208a)” was tested, and the “apparent KD of MS2 coat protein” value [1] was 216 nM, the “apparent KD of MS2 coat protein” value [2] was 19.9 nM and the “apparent KD of MS2 coat protein” value [3] was 318 nM.

In the case of “AGUCCAGCCUAAGCUGGACAAAAGCAUGUACAUGAGGAUCACCCAUGUUCAUGUACAAGCUUUUUGCAAGUCAAAAG [Mat - hsa-mir-208a - Mod of JL - 76] (puzzle: Sensor for hsa-mir-208a)”, the “apparent KD of MS2 coat protein” value [1] is reported as 350 nM, the “apparent KD of MS2 coat protein” value [2] is reported as 28.1 nM and the “apparent KD of MS2 coat protein” value [3] is reported as 664 nM.

In the case of “AGUCCAGCCUAAGCUGGACAAAAGCAUGUACAUGAGGAUCACCCAUGUUCAUGUACAAGCUUUUUGCUCGUCAAAAG [Mat - hsa-mir-208a - Mod of JL - 68] (puzzle: Sensor for hsa-mir-208a)”, the “apparent KD of MS2 coat protein” value [1] is reported as 194 nM, the “apparent KD of MS2 coat protein” value [2] is reported as 19.6 nM and the “apparent KD of MS2 coat protein” value [3] is reported as 242 nM.

For “AGUCCAGCCUAAGCUGGACAAAAGCAUGUACAUGAGGAUCACCCAUGUUCAUGUACAAGCUUUUUGCUCGUCUUAAG [Mat - hsa-mir-208a - Mod of JL - 65] (puzzle: Sensor for hsa-mir-208a)”, the “apparent KD of MS2 coat protein” value [1] was 864 nM, the “apparent KD of MS2 coat protein” value [2] was 18.7 nM and the “apparent KD of MS2 coat protein” value [3] was 844 nM.

For “AGUCCAGCCUGAGCUGGACAAAAGCAUGUACAUGAGGAUCACCCAUGUCAUGUACAAGCUUUUUGCACGUCUUAAAA [Mat - hsa-mir-208a - Mod of JL - D13] (puzzle: Sensor for hsa-mir-208a)”, the “apparent KD of MS2 coat protein” value [1] was 1120 nM, the “apparent KD of MS2 coat protein” value [2] was 16.4 nM and the “apparent KD of MS2 coat protein” value [3] was 542 nM.

“AGUCCAGCCUGAGCUGGACAAAAGCAUGUACAUGAGGAUCACCCAUGUCAUGUACAAGCUUUUUGCUCGUCAUAAAA [Mat - hsa-mir-208a - Mod of JL - D8] (puzzle: Sensor for hsa-mir-208a)” was tested, and the “apparent KD of MS2 coat protein” value [1] was 578 nM, the “apparent KD of MS2 coat protein” value [2] was 14.7 nM and the “apparent KD of MS2 coat protein” value [3] was 651 nM.

In the case of “AGUCCAGCCUGAGCUGGACAAAAGCAUGUACAUGAGGAUCACCCAUGUUAUGUACAAGCUUUUUGCUCGUUUUAAUA [Zipper 49 - 15] (puzzle: Sensor for hsa-mir-208a)”, the “apparent KD of MS2 coat protein” value [1] is reported as 191 nM, the “apparent KD of MS2 coat protein” value [2] is reported as 13.1 nM and the “apparent KD of MS2 coat protein” value [3] is reported as 199 nM.

“AGUCCAGCCUGAGCUGGACAAAAGUAUGUACAUGAGGAUCACCCAUGUCAUGUACAAGCUUUUUGCUCGUUUUAAUA [Zipper 49 - 17] (puzzle: Sensor for hsa-mir-208a)” was tested, and the “apparent KD of MS2 coat protein” value [1] was 424 nM, the “apparent KD of MS2 coat protein” value [2] was 33.8 nM and the “apparent KD of MS2 coat protein” value [3] was 517 nM.

For “AGUCCAGCGAAAGCUGGACAAAAGCAUGUACAUGAGGAUCACCCAUGUUCGUGUACAAGCUUUUUGCUCGUCUUAAA [JL mod - D95 - 5] (puzzle: Sensor for hsa-mir-208a)”, the “apparent KD of MS2 coat protein” value [1] was 536 nM, the “apparent KD of MS2 coat protein” value [2] was 14.6 nM and the “apparent KD of MS2 coat protein” value [3] was 554 nM.

“AGUCCUGAAAAGAAAAUACAGAGACAUGUACAUGAGGAUCACCCAUGUCAUGUACAAGUUCUAUGCUCGUCAUAUAA [Sensorship 20 - Jieux - Sensor for hsa-mir-208a] (puzzle: Sensor for hsa-mir-208a)” was tested, and the “apparent KD of MS2 coat protein” value [1] was 22.4 nM, the “apparent KD of MS2 coat protein” value [2] was 15.8 nM and the “apparent KD of MS2 coat protein” value [3] was 21 nM.

For “AGUCUACGGUGACGUAGACAGUAGUGCGUACAUGAGGAUCACCCAUGUCAUGUAAGAGUUACUUGUUCGUCUUGAAC [SENSOR #3] (puzzle: Sensor for hsa-mir-208a)”, the “apparent KD of MS2 coat protein” value [1] was 20.4 nM, the “apparent KD of MS2 coat protein” value [2] was 16.9 nM and the “apparent KD of MS2 coat protein” value [3] was 20.2 nM.

“AGUUGAAAUACAGGAUAUAUAUUAUUUUUAUUUAUAGAAGGGUAAUCACAUGAGGAUCACCCAUGUAUAUACGAGGAAGAAGAG [JMF's solution 1] (Eterna round: R96, puzzle: Same State NG 1)” was tested, and the “apparent KD of MS2 coat protein” value [4] was 182 nM.

In the case of “AUAAAACAUGAGGAUCACCCAUGUCAACAAAGUCGAGGAUAUGGGCAAAUAAAAUAAGAUCCAGAAGGCGAAUAAU [salish99_ss1_r3_016] (puzzle: Same State 1)”, the “apparent KD of MS2 coat protein” value [1] is reported as 97.3 nM, the “apparent KD of MS2 coat protein” value [2] is reported as 36.3 nM and the “apparent KD of MS2 coat protein” value [3] is reported as 92.7 nM.

“AUAAAACAUGAGGAUCACCCAUGUCAACUAAGUCGAGGAUAUGGGCAAAUAAAAUAAGAACCAGAAGGCGAAUAAU [salish99_ss1_r3_041] (puzzle: Same State 1)” was tested, and the “apparent KD of MS2 coat protein” value [1] was 34.3 nM, the “apparent KD of MS2 coat protein” value [2] was 322 nM and the “apparent KD of MS2 coat protein” value [3] was 361 nM.

For “AUACAAAACACAAAUACAAACAAAUACAAACAUGAGGAUCACCCAUGUGCAAUACGACUCUUUAUGGCUGGUCUUCA [Onvete] (Eterna round: R96, puzzle: Sensor for hsa-mir-208a)”, the “apparent KD of MS2 coat protein” value (input ligand: FMN 200 uM) was 87.7 nM, the “apparent KD of MS2 coat protein” value [4] was 60.1 nM and the “apparent KD of MS2 coat protein” value (input ligand: none) was 107 nM.

In the case of “AUACAUAUCAGAGGAUAUCACGUCGAAUAGACGUGAGAAGGCUGAUCACACAUGAAUAUUAAUACAUGAGGAUCACCCAUGUAU [SSNG1/14-A1] (Eterna round: R96, puzzle: Same State NG 1)”, the “apparent KD of MS2 coat protein” value (input ligand: FMN 200 uM) is reported as 13.1 nM, the “apparent KD of MS2 coat protein” value [4] is reported as 13.3 nM and the “apparent KD of MS2 coat protein” value (input ligand: none) is reported as 17.4 nM.

For “AUAUAUAUAAGGAAGGAUAUCUUAGAAAAAACAUGAGGAUCACCCAUGUAAAUAAAGAAUAAAUGGGAGAAGGUCCAUAUAUAUA [77%, More Tesla, 10] (Eterna round: R96, puzzle: Same State 2)”, the “apparent KD of MS2 coat protein” value [4] was 22 nM.
